Entries after “also recorded” stand apart in the source; their conditions may differ.

The text below walks through data of patent US8940516B2, “Method for the synthesis of chiral cyanohydrins via a hydroxynitrile lyase from brassicaceae” (Evocatal GmbH, priority 2006, dated 2015).

Common to all, as to assay type: biochemical
The target of one data set is T1, AtHNL (Arabidopsis thaliana, UniProt Q9LFT6).
T1 construct: made in house; host or cells: E. coli BL21(DE3), plasmid pAtHNL (pET28a, NcoI/XhoI)
T1 sequence (Q9LFT6 1-258): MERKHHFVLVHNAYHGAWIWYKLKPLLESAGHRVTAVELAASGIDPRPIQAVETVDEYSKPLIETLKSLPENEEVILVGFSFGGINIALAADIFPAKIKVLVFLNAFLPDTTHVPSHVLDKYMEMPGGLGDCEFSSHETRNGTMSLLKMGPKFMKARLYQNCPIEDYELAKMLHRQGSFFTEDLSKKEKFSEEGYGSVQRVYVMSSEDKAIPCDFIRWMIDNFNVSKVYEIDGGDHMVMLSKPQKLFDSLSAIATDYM
In words: Cleavage of mandelonitrile, determination of liberated benzaldehyde (cell test). The note with it: cleavage reaction of cyanohydrin by AtHNL, citrate-phosphate buffer pH 5. The method, then: Ia) Cleavage of Mandelonitrile(=Benzaldehyde Cyanohydrin), Determination of Liberated Benzaldehyde (Cell Test):
The protocol employed was based on the test described by Bauer et al in 1999 and was only modified slightly. 700 μl of citrate-phosphate buffer, pH 5 (48.5 mL 0.1M citric acid, 51.5 mL 0.2 M dipotassium hydrogen phosphate, qsp 100 ml water) was mixed with 100 μl of enzyme sample in a quartz glass cell and the reaction was started with 200 μl of mandelonitrile solution (60 mM in citrate-phosphate buffer, pH 3.5 (1.82 mL 0.1 M citric acid, 1.06 mL 0.1 M disodium hydrogen phosphate, qsp 100 mL water). The increase in the extinction at 280 nm was monitored for 2 min. It was proportional to the benzaldehyde concentration in the sample. Self-degradation of the cyanohydrin was determined in a control sample without enzyme and subtracted from the values measured for the enzyme sample. In order to determine the remaining activity in the course of the stability tests described in Example 5d, a slightly altered procedure was used: 870 μl of citrate buffer (50 mM, pH 4) was supplemented with 30 μl of enzyme sample, the reaction was started by adding 100 μl of mandelonitrile (60 mM in 50 mM of citrate buffer, pH 2) and monitored for 2 minutes at 280 nm. […] The enzyme activity is, however, much lower with this procedure.

Data set [1] in a line: HNL activity test of cloned and expressed Arabidopsis proteins resembling MeHNL. The note with it: cloned, expressed heterologously in E. coli; listed as At5g10300. The source says: The Arabidopsis thaliana plant (mouse-ear cress) is a model organism (accessible genome, short generation period) and thus has been comprehensively investigated. The genome has been completely sequenced and recorded in sequence databases. Examples of such databases are, for example, the “Genbank” as a collection of all published sequences, or TAIR as a database restricted to a single organism (in this case Arabidopsis). Because of the great strides made in molecular biology, many new sequences are being input into the appropriate databases than can be individually assessed and described. Thus, until now genes which have been identified as true genes but which have not been further investigated have automatically been ascribed types by appropriate computer algorithms because of their similarities to known sequences. Whether the function stated in this description is true, however, must be individually ascertained for each protein. […] The increase in the extinction at 280 nm was monitored for 2 min. […] Self-degradation of the cyanohydrin was determined in a control sample without enzyme and subtracted from the values measured for the enzyme sample. […]

Data set [2] in a line: Activity of AtHNL preparations from fed batch fermentation.
Data set [3] is described as follows: Demonstration of stereoselectivity (chiral gas chromatography and cleavage test with enantiomerically pure benzaldehyde cyanohydrin).
[4] abbreviates: after Q-Sepharose, desalting and lyophilization.

On to `N#CC(O)c1ccccc1` (stereo not shown) [Benzaldehyde cyanohydrin], for which the “Specify activity (U/mg), Benzaldehyde Test (see Ia above)” value at AtHNL is recorded as 12.5 U/mg.

B1: AtHNL: hydroxynitrile lyase from Arabidopsis thaliana, polypeptide of the invention, SEQ ID NO: 1 (protein, listed as Arabidopsis thaliana)
chain: T1 sequence (Q9LFT6 1-258)
As to B1, the “HNL activity (Remarks/misc)” value in data set [1] is reported as “high activity; also recorded: HNL activity (a poly-”. Moreover, in data set [2] (setting [4]), the activity per lyophilisate is recorded as 2.5 U/mg of lyophilisate and the specific activity entry is reported as “approximately 40 U/mg protein”. Moreover, in data set [2] (unrefined extract), the specific activity was determined as 13.3 U/mg and the volumetric activity result is on record as “approx 800 U/ml”. Further, the stereoselectivity entry in data set [3] is “Only the (R) enantiomer formed or was transformed”.
